The record followed here is PMC7595577.

The test addresses biotinylated CD16 (UniProt P08637). The test is described as follows: BLI. (In general: BLI is a label-free optical method that tracks binding on a fibre tip over time.)

B1: QA255.072 IgG (antibody, V domains shown)
VH: QVQLIQSGAEVRKPGSSVKVSCKAVGATFHNYAVSWVRQAPGQGLEWMGGIIPIRGLANQEPRFQGRLTITADESTGAIYMDLSSLRSDDSAVYYCARHYDDTSGFFYGAFDIWGQGTTLIVSS
VL: DIQMTQSPPSLSASVGDRVTISCRASQGIGNSVAWYQQKPGKAPKLLILAASSLRSGVPSRFSGSMSGTDFTLTISGLQPEDVATYYCQKYNSAPWTFGQGTKVEIK
For the molecule B1, the Kd – broadly, the equilibrium constant for the complex coming apart – is 4.9 µM. This lies in the single-digit micromolar range.
